Reference: patent US20080193373A1

Tests used:
[1] = molecular target: SA-B3/OmpA fusion protein (E. coli OmpA with streptavidin binding ligand peptide SA-B3 inserted) (Escherichia coli); experiment: magnetic separation (µMACS column) of a mixed E. coli Top10 culture with streptavidin-coated iron nanoparticles; counted as CFU on plates
[2] = molecular target: SA-B3/OmpA fusion protein (E. coli OmpA with streptavidin binding ligand peptide SA-B3 inserted) (Escherichia coli); experiment: magnetic separation (µMACS column) of a mixed E. coli Top10 culture with streptavidin-coated iron nanoparticles; input mix was about 47% OmpA+/SA-B3+ and 53% OmpA+LUX+; counted as CFU on plates

SA-B3/OmpA fusion protein (E. coli OmpA with streptavidin binding ligand peptide SA-B3 inserted) (Escherichia coli), sequence (chain, as listed by the source limits assumed): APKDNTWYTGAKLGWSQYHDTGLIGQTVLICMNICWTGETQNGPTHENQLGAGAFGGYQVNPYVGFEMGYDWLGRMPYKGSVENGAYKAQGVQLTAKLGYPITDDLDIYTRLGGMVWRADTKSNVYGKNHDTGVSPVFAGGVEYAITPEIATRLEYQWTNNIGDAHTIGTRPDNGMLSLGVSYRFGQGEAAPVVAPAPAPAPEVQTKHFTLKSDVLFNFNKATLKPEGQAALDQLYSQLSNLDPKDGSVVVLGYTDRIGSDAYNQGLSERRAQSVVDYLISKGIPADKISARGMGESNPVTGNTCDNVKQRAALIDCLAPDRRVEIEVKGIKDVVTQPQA

Substance: Streptavidin-coated iron-nanoparticles (from UniProt P22629 37-163)
- proportion of SA-B3-expressing bacteria lost on the columns and while washing [1]: 7%
- proportion of bacteria expressing SA-B3 after magnetic separation [2]: 92%
